In patent US11492376B2, “Toxoplasma gondii GRA8-derived recombinant peptides and composition for preventing or treating cancer comprising the same” (Industry—University Cooperation Foundation Hanyang …, priority 2019, dated 2022):

Columns and labels:
[1] = test system: mitochondrial targeting of GRA8; test: Subcellular fractionation: mitochondrial localization of GRA8; type: cell-based; conditions: 10 μM peptide, within 6 hours of incubation; 293T cells or BMDM
Method: (§1) FIGS. 2A, 2B, 2C, 2D and 2E show the design and expression of an ATRAM-conjugated multifunctional GRA8 peptide (rATRAM-G8-M/AS)-based protein [(A) Subcellular fractionation of 293T cells was performed by expression of GST-GRA8 WT or incubation of WT rGRA8 with (1 μg/ml) BMDM and treatment with several Tat-GRA8 peptides for 6 hours (10 μM). Mitochondrial and cytosolic fractions were fractionated and analyzed for expression of GST by IB. The purity of the fractions was confirmed by blotting for VDAC (mitochondrial protein) and actin (cytosolic protein). (B) A mammalian GST-GRA8 construct was transfected into 293T cells for 12 hours with V5-ATP5A1 or Flag-SIRT3, and treated with several Tat-GRA8 peptides (10 μM) for 6 hours. The 293T cells were used for GST pulldown, followed by IB with αV5 or αFlag. WCL was used for IB with αGST, αV5, αFlag or αActin. (C) The schematic design of ATRAM-GRA8-M/AS and its mutants [ATRAM-G8-M/AS (SEQ ID NO: 1), ATRAM-G8-M (SEQ ID NO: 2), ATRAM (SEQ ID NO: 3)]. (D) 6×His-rATRAM-GRA8-M/AS purified with bacteria and its mutants were analyzed by Coomassie blue staining (left) or αHis immunoblotting (IB; right). (E) BMDM was incubated with rATRAM-GRA8-M/AS and its mutant (20 μg/ml) for indicated times, and cell viability was then measured by an MMT assay. Data represents four independent experiments with similar results (A, B, D and E)]. […]

[2] = test system: GRA8-ATP5A1/SIRT3 interaction; test: GST pulldown of GRA8-ATP5A1/SIRT3 interaction in 293T cells; type: cell-based; conditions: 10 μM peptide, within 6 hours of incubation
Method: as §1

HCT116 cells = test: MTT assay of cell viability, HCT116 cells; type: cell-based, human
Method: (§2) FIGS. 1A, 1B and 1C: confirms that rGRA8 treatment increases HCT116 cell death by mitochondria pathways [(A and B). Various cancer cells were incubated with WT rGRA8 (20 μg/ml) and its mutants for indicated times and then cell viability was measured by MTT analysis (upper) and αATP5A1, αSIRT3 or αActin immunoblotting (lower) was performed. […] The cells were incubated with WT rGRA8 for indicated times and subjected to IP with αLys-AC or αHis and IB with αATP5A1, αATP5C1, αSIRT3, αPGC-1, αPKCα or αActin. Data represents five independent experiments with similar results. Significant differences were determined by comparison with rVector treatment (** P<0.01; *** P<0.001)].
FIGS. 4A, 4B, 4C, 4D and 4E show HCT116 cell death by rATRAM-GRA8-M/AS-induced mitochondrial activation [(A and B) HCT116 cells were incubated with WT rGRA8 or rATRAM-GRA8-M/AS and its mutants for indicated times, and then cell viability was measured with an MTT assay. […] The cells were stimulated with rATRAM-GRA8-M/AS for 1 day and subjected to enzymatic activity of OXPHOS V, and (C) MitoTracker fluorescence signals were assessed by flow cytometry. (D) A bar graph indicates a mitochondrial mass (MFI), and (E) the mtDNA content of BMDM was measured by quantitative real-time PCR. The mtDNA content was normalized by nuclear DNA. Significant differences were determined by comparison with control treatment (** P<0.01; *** P<0.001). Data represents five independent experiments with similar results].
(§3) As described in Non-Patent Document 1, the cell viability for a non-treated group was measured by an MTT assay. After incubation for an indicated time, 5 mg/ml of a 3-(4,5-dimethyl thiazol-2-yl)-2,5-diphenyltetrazoliumbromide (MTT) solution was added to a medium, and the cells were further incubated for 4 hours. Subsequently, all of the medium was removed, the same volume of a dimethyl sulfoxide (DMSO) solution was added for 15 minutes to dissolve formazan. Using a UV/VIS spectrophotometer, each well of a plate was measured at 540 nm to measure relative cell viability.

HT-29 = test: MTT assay of cell viability, HT-29 cells; type: cell-based, human; conditions: 20 μg/ml, over time
Method: as §2, §3

ATP5A1, SIRT3 and ATP5C1 = test: Immunoprecipitation/immunoblotting in HCT116 cells; type: cell-based, human; conditions: IP/IB
Method: as §2
For immunoprecipitation, cells were obtained, and then lysed in an NP-40 buffer supplemented with a complete protease inhibitor cocktail (Roche). After pre-purification with A/G agarose beads at 4° C. for 1 hour, a whole cell lysate was used for immunoprecipitation with indicated antibodies. […]
For immunoblotting, polypeptides were subjected to electrophoresis (PAGE) with an SDS-polyacrylamide gel, and then transferred to a PVDF membrane (Bio-Rad) for separation. […] Antibody binding was visualized by chemiluminescence (ECL; Millipore) and detected by a Vilber chemiluminescence analyzer (Fusion SL 3; Vilber Lourmat).

HCT116 xenografts = test: HCT116 xenograft mouse model, antitumor activity; type: in vivo, nude mouse; conditions: HCT116 xenograft mice

GRKKRRQRRR (Tat) [reference compound]
blocking of mitochondrial targeting of GRA8 [1]: impossible

GRKKRRQRRR-G-YRFTVQTTQN (GRKKRRQRRRGYRFTVQTTQN; Tat-GRA8-(260-269)) [Tat-GRA8 (aa 260-269)]
prevention of GRA8-ATP5A1/SIRT3 interaction [2]: able to effectively prevent

GRKKRRQRRR-G-ATATTTTTTR (GRKKRRQRRRGATATTTTTTR; Tat-GRA8-(213-222)) [Tat-GRA8 (aa 213-222)]
blocking of mitochondrial targeting of GRA8 [1]: can effectively block mitochondrial targeting

B1: rGRA8: recombinant His-tagged Toxoplasma gondii dense granule antigen 8, 269 amino acids; conventional GRA8-derived peptide (protein)
chain: MALPLRVSATVFVVFAVFGVARAMNGPLSYHPSSYGASYPNPSNPLHGMPKPENPVRPPPPGFHPSVIPNPPYPLGTPAGMPQPEVPPLQHPPPTGSPPAAAPQPPYPVGTPGMPQPEIPPVHRPPPPGFRPEVAPVPPYPVGTPTGMPQPEIPAVHHPFPYVTTTTTAAPRVLVYKIPYGGAAPPRAPPVPPRMGPSDISTHVRGAIRRQPATATTTTTTRNVLLRTAILAAAAATLIALFRQRPLFTEGVRMFPDFQYRFTVQTTQN
modifications: left off: small tags and cut ends
notes: recombinant His-tagged Toxoplasma gondii dense granule antigen 8, 269 amino acids; conventional GRA8-derived peptide
cell death in HCT116 (HCT116 cells; 20 μg/ml, over time, MTT): induced cell death | IC50 (HCT116 cell death) (HCT116 cells; HCT116 cells, MTT (FIG. 4A)): 20 µg/mL | cell death in HT-29 (HT-29): induced cell death | ATP5A1 deacetylation (ATP5A1, SIRT3 and ATP5C1): increased ATP5A1 deacetylation | binding of rGRA8 to ATP5A1, SIRT3 and ATP5C1 (ATP5A1, SIRT3 and ATP5C1): significantly increased | IC50 (antitumor activity in xenograft) (HCT116 xenografts): 10 mg/kg
